Test results reported in article PMC6563288.

Target: VP1(289A)-Flag (enterovirus A71 (C4))
Assay: co-IP

“Vimentin (VIM) (from UniProt P08670 1-466) (natural protein)” showed a fold VIM pulled down, against VP1(289T)-Flag of 1.6 fold.
